Five molecules from article PMC12172627 can be followed below.

Like-named read-outs stand apart in the source and are kept apart here.

Holding throughout (assay): EMSA
(Mobility shift assays separate free from complexed probe on a gel.)

The target in data set [1] is T1, E2F1 full-length (human, UniProt Q01094 1-437).
Data set [2] concerns the target T1, E2F1 full-length. This is another data set of the same source.
The target in data set [3] is E2F1 DBD L132E (UniProt Q01094 110-194, L132E).
Data set [4] concerns the target E2F1 DBD R166H (UniProt Q01094 110-194, R166H).
Data set [5] addresses T1, E2F1 full-length. This is another data set of the same source.

T1 sequence (Q01094 whole entry): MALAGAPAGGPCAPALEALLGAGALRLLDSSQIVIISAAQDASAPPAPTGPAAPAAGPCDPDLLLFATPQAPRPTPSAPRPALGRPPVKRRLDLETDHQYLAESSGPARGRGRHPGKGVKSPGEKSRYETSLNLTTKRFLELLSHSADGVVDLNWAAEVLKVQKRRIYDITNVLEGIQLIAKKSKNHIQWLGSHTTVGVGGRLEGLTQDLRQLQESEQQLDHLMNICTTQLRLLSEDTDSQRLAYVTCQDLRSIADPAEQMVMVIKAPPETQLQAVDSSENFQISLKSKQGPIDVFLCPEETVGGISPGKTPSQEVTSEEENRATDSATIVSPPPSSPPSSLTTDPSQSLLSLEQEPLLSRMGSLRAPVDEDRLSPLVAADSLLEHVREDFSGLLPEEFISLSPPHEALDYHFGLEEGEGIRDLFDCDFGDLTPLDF
Chain of E2F1 DBD R166H (Q01094 110-194 R166H): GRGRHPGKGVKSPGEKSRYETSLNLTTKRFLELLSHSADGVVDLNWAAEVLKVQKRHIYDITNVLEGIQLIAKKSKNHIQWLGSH
Chain of E2F1 DBD L132E (Q01094 110-194 L132E): as the sequence (Q01094 110-194 R166H) above, with L23E, H57R counted along it

Consider AUCGAUUUCCAGCUCGAUCGAUCGAGCUGGAAAUCGAU (structured_RNA) [BS1 double stranded (stem)], for which the binding result in data set [1] is recorded as “binds”. On the same count and under the same terms, under AUCGAUUUCCCUCUCGAUCGAUCGAGAGGGAAAUCGAU (structured_RNA) [BS4 double stranded (stem)] stands “binds”; under AUCGAUUUCCCGCUCGAUCGAUCGAGCGGGAAAUCGAU (structured_RNA) [BS2 double stranded (stem)], “binds”. Consider AUCGAUUCCCCGCUCGAUCGAUCGAGCGGGGAAUCGAU (structured_RNA) [BS3 double stranded (stem)], for which, in data set [2], the binding result was “binds”.

B1: 42-mer dsDNA (2XE2F1_DNA_BS) (dsDNA)
DNA 1: GCCGTTTTCGCGCTTAAATTTGAGAAAGGGCGCGAAACTGGA
DNA 2: TCCAGTTTCGCGCCCTTTCTCAAATTTAAGCGCGAAAACGGC
Consider B1, for which the binding result in data set [3], in data set [4] and in data set [5] was “binds” throughout.
